Test results as given in patent US20250320281A1.

What was measured:
Experiment in all cases: cell-based or functional assay
[1] = molecular target: HIV-1 Env of pseudovirus MGRM-AG-003 (clade CRF_AG) (HIV-1)
[2] = molecular target: HIV-1 93IN905 envelope glycoprotein (Env) on pseudovirus (HIV-1)
[3] = molecular target: HIV-1 Env of pseudovirus MGRM-F1-017 (HIV-1)
[4] = molecular target: HIV-1 envelope glycoprotein (Env) of isolate 94UG103, clade A (HIV-1)
[5] = molecular target: HIV-1 Env of pseudovirus MGRM-AE-006 (clade CRF01_AE) (HIV-1)
[6] = molecular target: HIV-1 Env of pseudovirus MGRM-Chronic-B-018 (HIV-1)
[7] = molecular target: HIV-1 Env of pseudovirus MGRM-F1-014 (HIV-1)
[8] = molecular target: HIV-1 Env of pseudovirus MGRM-G-028 (HIV-1, clade G isolate MGRM-G-028)
[9] = molecular target: HIV-1 Env of pseudovirus MGRM-AG-005 (clade CRF_AG) (HIV-1)
[10] = molecular target: HIV-1 Env of pseudovirus MGRM-F1-004 (HIV-1)
[11] = molecular target: HIV-1 Env of isolate 92UG001 (clade D pseudovirus) (HIV-1)
[12] = molecular target: HIV-1 Env of pseudovirus MGRM-G-015 (HIV-1, clade G isolate MGRM-G-015)
[13] = molecular target: HIV-1 envelope glycoprotein (Env) of isolate 92RW009, clade A (HIV-1)
[14] = molecular target: HIV-1 Env of isolate 92TH021 (clade AE), on pseudovirus (HIV-1)
[15] = molecular target: HIV-1 Env of isolate MGRM-AE-008 (HIV-1)
[16] = molecular target: HIV-1 Env of isolate TRO.11 (subtype B pseudovirus) (HIV-1)
[17] = molecular target: HIV-1 Env of isolate MGRM-AE-004 (HIV-1)
[18] = molecular target: HIV-1 Env of isolate MGRM-F1-015 (HIV-1)
[19] = molecular target: HIV-1 Env of isolate MGRM-Chronic-B-018 (subtype B pseudovirus) (HIV-1)
[20] = molecular target: HIV-1 Env of isolate MGRM-D-019 (pseudovirus) (HIV-1)
[21] = molecular target: HIV-1 Env of isolate CAAN.A2 (subtype B pseudovirus) (HIV-1)
[22] = molecular target: HIV-1 Env of isolate MGRM-C-026 (HIV-1)
[23] = molecular target: HIV-1 Env of isolate MGRM-D-021 (pseudovirus) (HIV-1)
[24] = molecular target: HIV-1 Env of isolate MGRM-D-004 (pseudovirus) (HIV-1)
[25] = molecular target: HIV-1 Env of isolate MGRM-D-026 (pseudovirus) (HIV-1)
[26] = molecular target: HIV-1 Env of isolate 92UG005 (clade D), on pseudovirus (HIV-1)
[27] = molecular target: HIV-1 Env of isolate MGRM-AE-006 (HIV-1)
[28] = molecular target: HIV-1 Env of isolate MGRM-D-001 (clade D), on pseudovirus (HIV-1)
[29] = molecular target: HIV-1 92BR020 Env (pseudovirus, clade B) (HIV-1)
[30] = molecular target: HIV-1 Env of isolate CMU02 (subtype AE) (HIV-1)
[31] = molecular target: HIV-1 Env of isolate 92BR020 (HIV-1)

1443_C16 (PG16) (TCN-116) (antibody), sequence (VH): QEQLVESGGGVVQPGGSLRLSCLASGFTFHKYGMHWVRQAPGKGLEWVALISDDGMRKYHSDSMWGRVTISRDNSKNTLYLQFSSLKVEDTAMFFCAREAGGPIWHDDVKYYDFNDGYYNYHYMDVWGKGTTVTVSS
1443_C16 (PG16) (TCN-116) (antibody), sequence (VL): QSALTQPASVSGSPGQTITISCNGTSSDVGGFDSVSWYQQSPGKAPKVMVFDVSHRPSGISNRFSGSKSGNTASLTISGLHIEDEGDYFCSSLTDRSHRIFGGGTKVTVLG
4970_K22 (PGT-144) (antibody), sequence (VH): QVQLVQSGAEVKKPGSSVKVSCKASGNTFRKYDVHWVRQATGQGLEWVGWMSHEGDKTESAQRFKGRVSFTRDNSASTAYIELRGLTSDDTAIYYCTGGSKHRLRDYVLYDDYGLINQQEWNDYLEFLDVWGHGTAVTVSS
4970_K22 (PGT-144) (antibody), sequence (VL): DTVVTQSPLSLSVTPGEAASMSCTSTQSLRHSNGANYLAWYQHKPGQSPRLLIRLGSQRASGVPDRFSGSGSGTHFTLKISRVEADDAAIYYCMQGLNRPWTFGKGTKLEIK
4993_K13 (PGT-141) (antibody), sequence (VH): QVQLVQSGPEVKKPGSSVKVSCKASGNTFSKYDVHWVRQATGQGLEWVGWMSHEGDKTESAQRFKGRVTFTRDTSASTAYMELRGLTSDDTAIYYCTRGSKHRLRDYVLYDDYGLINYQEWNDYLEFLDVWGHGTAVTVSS
4993_K13 (PGT-141) (antibody), sequence (VL): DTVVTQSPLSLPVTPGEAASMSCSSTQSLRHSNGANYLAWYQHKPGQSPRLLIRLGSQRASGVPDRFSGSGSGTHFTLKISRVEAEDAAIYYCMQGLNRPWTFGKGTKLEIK
4980_N08 (PGT-143) (antibody), sequence (VH): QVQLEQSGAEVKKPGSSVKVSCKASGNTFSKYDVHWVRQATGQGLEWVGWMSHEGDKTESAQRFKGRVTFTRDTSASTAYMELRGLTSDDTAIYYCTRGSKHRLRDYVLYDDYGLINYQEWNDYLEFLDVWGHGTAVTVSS
4980_N08 (PGT-143) (antibody), sequence (VL): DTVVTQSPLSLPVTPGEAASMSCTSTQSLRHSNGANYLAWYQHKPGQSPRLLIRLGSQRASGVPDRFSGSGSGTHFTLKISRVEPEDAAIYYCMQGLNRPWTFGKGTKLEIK
4995_E20 (PGT-142) (antibody), sequence (VH): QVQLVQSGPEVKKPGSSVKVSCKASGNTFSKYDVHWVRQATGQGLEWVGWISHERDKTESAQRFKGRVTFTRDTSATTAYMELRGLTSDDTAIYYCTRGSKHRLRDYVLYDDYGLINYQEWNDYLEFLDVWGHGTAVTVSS

Substance | IC50 [1] | IC50, pseudovirus neutralization [2] | IC50 (µg/ml), pseudovirus neutralization [3] | IC50 (µg/ml), pseudovirus neutralization [4] | IC50 [5] | IC50 (µg/ml), pseudovirus neutralization [6] | IC50 (µg/ml), pseudovirus neutralization [7] | IC50 (µg/ml), pseudovirus neutralization [8] | IC50 [9] | IC50 (µg/ml), pseudovirus neutralization [10] | IC50 (µg/ml), pseudovirus neutralization [11] | IC50 (µg/ml), pseudovirus neutralization [12] | IC50 (µg/ml), pseudovirus neutralization [13] | IC50, pseudovirus neutralization [14] | IC50 [15] | IC50 (µg/mL), pseudovirus neutralization [16] | IC50 [17] | IC50 (µg/mL), pseudovirus neutralization [18] | IC50 (µg/mL), pseudovirus neutralization [19] | IC50, pseudovirus neutralization [20] | other results
2F5 (antibody) | 0.14 µg/mL | > 50 µg/mL | > 50 µg/mL | 1.92 µg/mL | 0.18 µg/mL | 10.8 µg/mL | 15.1 µg/mL | 2.24 µg/mL | > 50 µg/mL | 4.31 µg/mL | 13 µg/mL | 0.43 µg/mL | 39.1 µg/mL |  |  |  |  |  |  |  | 
2G12 (antibody) | > 50 µg/mL | > 50 µg/mL | > 50 µg/mL | 48.1 µg/mL | > 50 µg/mL | > 50 µg/mL | > 50 µg/mL | 28.2 µg/mL | > 50 µg/mL | > 50 µg/mL | > 50 µg/mL | > 50 µg/mL | 26.1 µg/mL |  |  |  |  |  |  |  | 
4E10 (antibody) | 0.64 µg/mL | 1.55 µg/mL | 4.92 µg/mL | 4.97 µg/mL | 0.23 µg/mL | 23.2 µg/mL | 7.36 µg/mL | 6.32 µg/mL | 2.13 µg/mL | 2.74 µg/mL | 13.6 µg/mL | 1.07 µg/mL | > 50 µg/mL |  |  |  |  |  |  |  | 
1443_C16 (PG16) (TCN-116) (antibody) | > 50 µg/mL | 0.102 µg/mL | > 50 µg/mL | 0.04 µg/mL | 0.03 µg/mL | 0.7 µg/mL | 0.01 µg/mL | 3.09 µg/mL | > 50 µg/mL | 0.43 µg/mL | > 50 µg/mL | 5.33 µg/mL | 0.11 µg/mL |  |  |  |  |  |  |  | 
1495_C14 (PGC14) (antibody) | > 50 µg/mL | > 50 µg/mL | > 50 µg/mL | > 50 µg/mL | > 50 µg/mL | > 50 µg/mL | > 50 µg/mL | > 50 µg/mL | > 50 µg/mL | > 50 µg/mL | > 50 µg/mL | > 50 µg/mL | > 50 µg/mL |  |  |  |  |  |  |  | 
1496_C09 (PG9) (TCN-109) (antibody) | 9.71 µg/mL |  |  | 0.24 µg/mL | 0.05 µg/mL | 0.16 µg/mL | 0.01 µg/mL |  | 29.7 µg/mL |  | 41.8 µg/mL | 1.51 µg/mL | 0.03 µg/mL | 0.103 µg/mL |  |  |  |  |  |  | 
4838_L06 (PGT-121) (antibody) |  |  |  |  |  |  |  |  |  |  |  |  |  | > 10 µg/mL | > 50 µg/mL | 0.008 µg/mL | > 50 µg/mL | 28.4 µg/mL | > 50 µg/mL | > 50 µg/mL | IC50 (µg/mL), pseudovirus neutralization [21]: 0.011 µg/mL; neutralization IC50 [22]: 2 ng/mL; IC50, pseudovirus neutralization [23]: 5.33 µg/mL; IC50, pseudovirus neutralization [24]: > 50 µg/mL; IC50, pseudovirus neutralization [25]: > 50 µg/mL; IC50, pseudovirus neutralization [26]: > 10 µg/mL; IC50 [27]: > 50 µg/mL
4858_P08 (PGT-123) (antibody) |  |  |  |  |  |  |  |  |  |  |  |  |  | > 10 µg/mL | > 50 µg/mL | 0.008 µg/mL | > 50 µg/mL | > 50 µg/mL | > 50 µg/mL | > 50 µg/mL | neutralization IC50 [2]: 7.1 ng/mL; neutralization IC80 [2]: 0.0281 µg/mL; neutralization IC90 [2]: 0.0625 µg/mL; neutralization IC95 [2]: 0.131 µg/mL; IC50, pseudovirus neutralization [28]: 0.215 µg/mL; IC50 neutralization [29]: 0.013 µg/mL; IC50 (µg/mL), pseudovirus neutralization [21]: 0.015 µg/mL; neutralization IC50 [22]: 1 ng/mL; IC50, pseudovirus neutralization [23]: 11.1 µg/mL; IC50, pseudovirus neutralization [24]: > 50 µg/mL; IC50, pseudovirus neutralization [25]: > 50 µg/mL; IC50, pseudovirus neutralization [26]: 2.49 µg/mL; IC50 [27]: > 50 µg/mL
4877_D15 (PGT-122) (antibody) |  |  |  |  |  |  |  |  |  |  |  |  |  | > 10 µg/mL | > 50 µg/mL | 0.011 µg/mL | > 50 µg/mL | 31.4 µg/mL | > 50 µg/mL | > 50 µg/mL | IC50, pseudovirus neutralization [28]: 0.867 µg/mL; IC50 neutralization [29]: 0.0337 µg/mL; IC50 (µg/mL), pseudovirus neutralization [21]: 0.011 µg/mL; neutralization IC50 [22]: 6 ng/mL; IC50, pseudovirus neutralization [23]: 11.7 µg/mL; IC50, pseudovirus neutralization [24]: > 50 µg/mL; IC50, pseudovirus neutralization [25]: > 50 µg/mL; IC50, pseudovirus neutralization [26]: > 10 µg/mL; IC50 [27]: > 50 µg/mL
4970_K22 (PGT-144) (antibody) |  |  |  |  |  |  |  |  |  |  |  |  |  |  |  |  |  |  |  |  | IC50 (µg/mL), pseudovirus neutralization [30]: > 50 µg/mL
4980_N08 (PGT-143) (antibody) |  |  |  |  |  |  |  |  |  |  |  |  |  |  |  |  |  |  |  |  | IC50 (µg/mL), pseudovirus neutralization [30]: > 50 µg/mL
4993_K13 (PGT-141) (antibody) |  |  |  |  |  |  |  |  |  |  |  |  |  |  |  |  |  |  |  |  | IC50 (µg/mL), pseudovirus neutralization [30]: > 50 µg/mL
4995_E20 (PGT-142) (antibody) |  |  |  |  |  |  |  |  |  |  |  |  |  |  |  |  |  |  |  |  | IC50 (µg/mL), pseudovirus neutralization [30]: > 50 µg/mL
5123_A06 (PGT-125) (antibody) |  |  |  |  |  |  |  |  |  |  |  |  |  | 0.0066 µg/mL | > 50 µg/mL | 0.111 µg/mL | > 50 µg/mL | > 50 µg/mL | > 50 µg/mL | 0.049 µg/mL | IC50, pseudovirus neutralization [28]: 2.31 µg/mL; IC50 neutralization [29]: 0.0214 µg/mL; IC50 (µg/mL), pseudovirus neutralization [21]: 5.47 µg/mL; neutralization IC50 [22]: 5 ng/mL; IC50, pseudovirus neutralization [23]: 0.015 µg/mL; IC50, pseudovirus neutralization [24]: 0.371 µg/mL; IC50, pseudovirus neutralization [25]: > 50 µg/mL; IC50, pseudovirus neutralization [26]: > 10 µg/mL; IC50 [27]: 0.009 µg/mL
5141_B17 (PGT-126) (antibody) |  | 0.0194 µg/mL |  |  |  |  |  |  |  |  |  |  |  | 0.115 µg/mL | > 50 µg/mL | 0.041 µg/mL | > 50 µg/mL | > 50 µg/mL | 0.052 µg/mL | > 50 µg/mL | IC80 (pseudovirus neutralization) [2]: 0.0676 µg/mL; IC90 (pseudovirus neutralization) [2]: 0.14 µg/mL; IC95 (pseudovirus neutralization) [2]: 0.275 µg/mL; IC50, pseudovirus neutralization [28]: 0.0639 µg/mL; IC50 neutralization [29]: 0.0163 µg/mL; IC50 (µg/mL), pseudovirus neutralization [21]: 0.273 µg/mL; neutralization IC50 [22]: 7 ng/mL; IC50, pseudovirus neutralization [23]: 0.047 µg/mL; IC50, pseudovirus neutralization [24]: > 50 µg/mL; IC50, pseudovirus neutralization [25]: > 50 µg/mL; IC50, pseudovirus neutralization [26]: 0.0181 µg/mL; IC50 [27]: 17.3 µg/mL
5145_B14 (PGT-127) (antibody) |  |  |  |  |  |  |  |  |  |  |  |  |  |  | > 50 µg/mL | 0.079 µg/mL | > 50 µg/mL | > 50 µg/mL | 1.9 µg/mL | > 50 µg/mL | IC50 (µg/mL), pseudovirus neutralization [21]: 0.371 µg/mL; neutralization IC50 [22]: 14 ng/mL; IC50, pseudovirus neutralization [23]: 0.056 µg/mL; IC50, pseudovirus neutralization [24]: > 50 µg/mL; IC50, pseudovirus neutralization [25]: > 50 µg/mL; IC50 [27]: > 50 µg/mL
PGV04 (antibody) |  |  |  |  |  |  |  |  |  |  |  |  |  |  |  |  |  |  |  |  | IC50 (µg/mL), pseudovirus neutralization [31]: 0.25 µg/mL; IC50 (µg/mL), pseudovirus neutralization [26]: 0.44 µg/mL
VRC01 (antibody) |  |  |  |  |  |  |  |  |  |  |  |  |  |  |  |  |  |  |  |  | IC50 [18]: 0.387 µg/mL; IC50 (µg/mL), pseudovirus neutralization [30]: 0.515 µg/mL; IC50 (µg/mL), pseudovirus neutralization [22]: 0.707 µg/mL
b12 (antibody) | > 50 µg/mL | 34.1 µg/mL | > 50 µg/mL | 6.92 µg/mL | > 50 µg/mL | 0.66 µg/mL | > 50 µg/mL | > 50 µg/mL | > 50 µg/mL | > 50 µg/mL | 1.01 µg/mL | > 50 µg/mL | > 50 µg/mL |  |  |  |  |  |  |  | 
